Experimental data taken from US20230365648A1 (BITTERROOT BIO, published 2023).

T1: mouse CD47 (mouse, UniProt Q61735 19-140, limits assumed)
T1 construct: also called mouse CD47 protein
T1 sequence (looked up): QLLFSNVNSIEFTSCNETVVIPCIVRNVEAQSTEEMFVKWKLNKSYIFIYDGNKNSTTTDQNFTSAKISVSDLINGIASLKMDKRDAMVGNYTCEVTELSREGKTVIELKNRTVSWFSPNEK

T2: rat CD47 (rat, UniProt P97829 19-140, limits assumed)
T2 construct: also called rat CD47 protein
T2 sequence (looked up): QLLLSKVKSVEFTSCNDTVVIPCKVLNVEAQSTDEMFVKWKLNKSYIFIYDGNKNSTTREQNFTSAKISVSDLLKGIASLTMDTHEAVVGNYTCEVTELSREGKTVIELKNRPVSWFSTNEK


Tests used:
Experiment in all cases: BLI (Octet R8), construct captured on anti-human Fc sensor, CD47 in solution
rhCD47-his (human CD47) = target: T3, rhCD47-his (human CD47) (human, UniProt Q08722 19-139)
T3 construct: Soluble analyte in the Octet assay; not shown: his tag

mouse CD47 = target: T1, mouse CD47
rat CD47 = target: T2, rat CD47

T3 sequence (Q08722 19-139 limits assumed): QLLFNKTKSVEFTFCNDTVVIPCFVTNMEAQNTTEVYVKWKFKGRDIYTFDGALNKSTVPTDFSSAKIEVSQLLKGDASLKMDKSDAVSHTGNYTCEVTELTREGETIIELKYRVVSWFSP

| binding result (rhCD47-his (human CD47)) | binding result (mouse CD47) | binding result (rat CD47) | Binder |
| --- | --- | --- | --- |
| binds | binds | binds | Construct 50 (SIRPα fusion polypeptide SEQ ID NO: 10 construct without the YTE mutation, i.e. with the wild type IgG4 Fc domain) (Fc fusion, It is described as the same construct as Construct 67 without the YTE mutation) EEELQIIQPDKSVLVAAGETATLRCTITSLFPVGPIQWFRGAGPGRVLIYNQRQGPFPRVTTVSDTTKRNNMDFSIRIGNITPADAGTYYCIKFRKGSPDDVEFKSGAGTELSVRAKPSAAAPPCPPCPAPEFLGGPSVFLFPPKPKDTLMISRTPEVTCVVVDVSQEDPEVQFNWYVDGVEVHNAKTKPREEQFNSTYRVVSVLTVLHQDWLNGKEYKCKVSNKGLPSSIEKTISKAKGQPREPQVYTLPPSQEEMTKNQVSLTCLVKGFYPSDIAVEWESNGQPENNYKTTPPVLDSDGSFFLYSRLTVDKSRWQEGNVFSCSVMHEALHNHYTQKSLSLSLGK |
| binds | binds | binds | Construct 67 (SIRPα fusion polypeptide of SEQ ID NO: 10, SIRPα domain of SEQ ID NO: 2 and IgG4 Fc domain with a YTE mutation) (Fc fusion) EEELQIIQPDKSVLVAAGETATLRCTITSLFPVGPIQWFRGAGPGRVLIYNQRQGPFPRVTTVSDTTKRNNMDFSIRIGNITPADAGTYYCIKFRKGSPDDVEFKSGAGTELSVRAKPSAAAPPCPPCPAPEFLGGPSVFLFPPKPKDTLYITREPEVTCVVVDVSQEDPEVQFNWYVDGVEVHNAKTKPREEQFNSTYRVVSVLTVLHQDWLNGKEYKCKVSNKGLPSSIEKTISKAKGQPREPQVYTLPPSQEEMTKNQVSLTCLVKGFYPSDIAVEWESNGQPENNYKTTPPVLDSDGSFFLYSRLTVDKSRWQEGNVFSCSVMHEALHNHYTQKSLSLSLGK |
